The chains are these.
B1: D2 (structured_RNA)
RNA: UAGGUUAGGU
B2: B2 (structured_RNA)
RNA: CAGGUGAGUCAGGUGAGU
B3: B3 (structured_RNA)
RNA: CAGGUGAGUCAGGUGAGUCAGGUGAGU
B4: A2 (ssRNA)
RNA: CAGGUAAGUCAGGUAAGU
B5: A3 (ssRNA)
RNA: CAGGUAAGUCAGGUAAGUCAGGUAAGU
B6: C2 (ssRNA)
RNA: UAGGAUAGGA
B7: oligo 20 (ssRNA)
RNA: AAGGUGAU
B8: sequence B (2) (ssRNA)
RNA: CAGGUGAGU
B9: sequence A (1) (ssRNA)
RNA: CAGGUAAGU
B10: oligo 6 (ssRNA)
RNA: AAGGUAAGU
B11: oligo 21 (ssRNA)
RNA: CACAGA
B12: oligo 41 (ssRNA)
RNA: AUUUA
B13: oligo 5 (ssRNA)
RNA: UAGG
B14: oligo 7 (ssRNA)
RNA: UGUAGG
B15: sequence D (ssRNA)
RNA: UAGGU
B16: sequence C (3) (ssRNA)
RNA: UAGGA

The first data set deals with T1, hnRNP A1 (UniProt P09651 2-196). The experiment in a line: EMSA; 150 mM KCl, 50 mM L-Arg, 50 mM L-Glu, 1.5 mM MgCl2, 0.2 mM EDTA, 0.05% BME, 20 mM Na2HPO4, pH 7.0, 4 C, 30 min; 0.5 uM RNA, 0.1-60 uM protein (Kd) or 60 uM (scr). Particulars: protein: recombinant; label: 5'-6-FAM; G4, intermolecular, two tetrads.
T1 sequence (P09651 2-196): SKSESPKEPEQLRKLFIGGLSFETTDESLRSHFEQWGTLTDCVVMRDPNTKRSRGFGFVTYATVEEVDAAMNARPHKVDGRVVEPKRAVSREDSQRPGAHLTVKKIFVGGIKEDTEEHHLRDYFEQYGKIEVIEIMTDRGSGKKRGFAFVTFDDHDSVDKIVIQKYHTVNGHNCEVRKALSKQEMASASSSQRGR
Take B1: the Kd worked out at 1200 nM.

Staying with this data set, now noted: protein: recombinant; label: 5'-6-FAM; duplex/hairpin.
Consider B2, for which the Kd was found to be 1760 nM. Consider B3, for which the Kd turned out to be 1990 nM.

The data set is the same for the next values; noted with them: protein: recombinant; label: 5'-6-FAM; no UV melting transition.
As for B4, the Kd was around 1700 nM. As to B5, the Kd was around 1700 nM.

Still in this data set, the particulars now being: protein: recombinant; label: 5'-6-FAM; single-stranded.
On to B6, for which the Kd amounted to 1440 nM.

A further data set deals with T1, hnRNP A1. The experiment in a line: EMSA; 60 uM protein, 0.5 uM RNA; 150 mM KCl, 50 mM L-Arg, 50 mM L-Glu, 1.5 mM MgCl2, 0.2 mM EDTA, 0.05% BME, 20 mM Na2HPO4, pH 7.0, 4 C, 30 min; 0.5 uM RNA, 0.1-60 uM protein (Kd) or 60 uM (scr). The following applies: protein: recombinant; label: 5'-6-FAM.
On to B7, for which the binding result is given as “no binding”. For the molecule B8, the binding result is listed as “binds”. On to B9, for which the binding result is recorded as “binds”. Consider B10, for which the binding result was “binds”. As to B11, the binding result is reported as “no binding”. Still for that read-out and setting: the result for B12 reads “no binding”; that for B13, “binds”; that for B14, “binds”. Turning to B15, the binding result is recorded as “binds”. In the case of B16, the binding result is given as “binds”.

Usually Kd stands for the concentration at which binding is half-saturated.

(Values after publication PMC9457596, “Optimization of Bifunctional Antisense Oligonucleotides for Regulation of Mutually Exclusive Alternative Splicing of PKM Gene”.)
